From paper PMC8103094, “Androgen receptor (AR) antagonism triggers acute succinate‐mediated adaptive responses to reactivate AR signaling”

B1: SDHB ARE probe (dsDNA)
DNA 1: AGAGCTCCCTGTACTTTCCCAACA
DNA 2: TGTTGGGAAAGTACAGGGAGCTCT
B2: SDHA ARE probe (dsDNA)
DNA 1: GCGACTTGTGCTGGCTGAGGGA
DNA 2: TCCCTCAGCCAGCACAAGTCGC

Molecular target: Androgen receptor DNA-binding domain (AR-DBD) (UniProt P10275 560-632)
Assay: EMSA; Odyssey infrared EMSA kit (LI-COR): 2.5 mM DTT/0.25% Tween 20, poly(dI.dC), room temperature 30 min, increasing protein; 6% TBE native gel; salt and pH not stated
Conditions: protein: recombinant; chain copies: 2; label: 5' IRDye700 on both strands; blunt

Sequence of Androgen receptor DNA-binding domain (AR-DBD) (P10275 560-632): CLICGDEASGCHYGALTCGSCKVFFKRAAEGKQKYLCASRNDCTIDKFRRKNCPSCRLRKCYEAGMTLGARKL

Row | Binder | binding result
1 | B1 | binds
2 | B2 | binds
